Common to all, as to format: biochemical
Series [1] in a line: ω-transaminase activity, reverse direction (6-aminohexanoate to adipate semialdehyde). As to conditions: cell free extract; 10 mM 6-aminohexanoate, 10 mM pyruvate, pH 7.5, 25° C., 24 h; RP-HPLC. The method, then:
(§1) A nucleotide sequence encoding a His-tag was added to the nucleic acid sequences from Chromobacterium violaceum, Pseudomonas aeruginosa, Pseudomonas syringae, Rhodobacter sphaeroides, and Vibrio fluvialis encoding the ω-transaminases of SEQ ID NOs: 7, 8, 9, 10 and 12, respectively (see FIG. 6) such that N-terminal HIS tagged ω-transaminases could be produced. Each of the resulting modified genes was cloned into a pET21a expression vector under control of the T7 promoter and each expression vector was transformed into a BL21[DE3] E. coli host. The resulting recombinant E. coli strains were cultivated at 37° C. in a 250 mL shake flask culture containing 50 mL LB media and antibiotic selection pressure, with shaking at 230 rpm. Each culture was induced overnight at 16° C. using 1 mM IPTG.
(§2) The pellet from each induced shake flask culture was harvested via centrifugation. Each pellet was resuspended and lysed via sonication. The cell debris was separated from the supernatant via centrifugation and the cell free extract was used immediately in enzyme activity assays.
Enzyme activity assays in the reverse direction (i.e., 6-aminohexanoate to adipate semialdehyde) were performed in a buffer composed of a final concentration of 50 mM HEPES buffer (pH=7.5), 10 mM 6-aminohexanoate, 10 mM pyruvate and […] pyridoxyl 5′ phosphate. Each enzyme activity assay reaction was initiated by adding cell free extract of the ω-transaminase gene product or the empty vector control to the assay buffer containing the 6-aminohexanoate and incubated at 25° C. for 24 h, with shaking at 250 rpm. The formation of L-alanine from pyruvate was quantified via RP-HPLC.

A short description of series [2]: ω-transaminase activity, forward direction (adipate semialdehyde to 6-aminohexanoate). Conditions: cell free extract; 10 mM adipate semialdehyde, 10 mM L-alanine, pH 7.5, 25° C., 4 h; RP-HPLC. The method, then: as §1, §2
Enzyme activity in the forward direction (i.e., adipate semialdehyde to 6-aminohexanoate) was confirmed for the transaminases of SEQ ID NO 7, SEQ ID NO 8, SEQ ID NO 9, SEQ ID NO 10 and SEQ ID NO 12. Enzyme activity assays were performed in a buffer composed of a final concentration of 50 mM HEPES buffer (pH=7.5), 10 mM adipate semialdehyde, 10 mM L-alanine and 100 μM pyridoxyl 5′ phosphate. Each enzyme activity assay reaction was initiated by adding a cell free extract of the ω-transaminase gene product or the empty vector control to the assay buffer containing the adipate semialdehyde and incubated at 25° C. for 4 h, with shaking at 250 rpm. The formation of pyruvate was quantified via RP-HPLC.

A short description of series [3]: carboxylate reductase activity (adipate semialdehyde to hexanedial). As to conditions: purified enzyme with sfp phosphopantetheine transferase; 2 mM adipate semialdehyde, pH 7.5, room temperature, 20 min. The procedure: The N-terminal His-tagged carboxylate reductase of SEQ ID NO 6 (see Example 2 and FIG. 6) was assayed using adipate semialdehyde as substrate. The enzyme activity assay was performed in triplicate in a buffer composed of a final concentration of 50 mM HEPES buffer (pH=7.5), 2 mM adipate semialdehyde, 10 mM MgCl2, 1 mM ATP and 1 mM NADPH. The enzyme activity assay reaction was initiated by adding purified carboxylate reductase and phosphopantetheine transferase or the empty vector control to the assay buffer containing the adipate semialdehyde and then incubated at room temperature for 20 min. The consumption of NADPH was monitored by absorbance at 340 nm.

In the case of “SEQ ID NO 10: Rhodobacter sphaeroides ω-transaminase, N-terminal His-tagged”, the “ω-transaminase activity: conversion of pyruvate to L-alanine with 6-aminohexanoate as substrate, against the empty vector control” value in series [1] is recorded as “accepted 6-aminohexanote as substrate”. Moreover, the “ω-transaminase activity: conversion of L-alanine to pyruvate with adipate semialdehyde as substrate, against the empty vector control” value in series [2] is reported as “accepted adipate semialdehyde as substrate”.

B1: SEQ ID NO 7: Chromobacterium violaceum ω-transaminase, N-terminal His-tagged (protein, listed as Chromobacterium violaceum)
chain: MQKQRTTSQWRELDAAHHLHPFTDTASLNQAGARVMTRGEGVYLWDSEGNKIIDGMAGLWCVNVGYGRKDFAEAARRQMEELPFYNTFFKTTHPAVVELSSLLAEVTPAGFDRVFYTNSGSESVDTMIRMVRRYWDVQGKPEKKTLIGRWNGYHGSTIGGASLGGMKYMHEQGDLPIPGMAHIEQPWWYKHGKDMTPDEFGVVAARWLEEKILEIGADKVAAFVGEPIQGAGGVIVPPATYWPEIERICRKYDVLLVADEVICGFGRTGEWFGHQHFGFQPDLFTAAKGLSSGYLPIGAVFVGKRVAEGLIAGGDFNHGFTYSGHPVCAAVAHANVAALRDEGIVQRVKDDIGPYMQKRWRETFSRFEHVDDVRGVGMVQAFTLVKNKAKRELFPDFGEIGTLCRDIFFRNNLIMRACGDHIVSAPPLVMTRAEVDEMLAVAERCLEEFEQTLKARGLA
modifications: N-terminal His tag
notes: Chromobacterium violaceum ω-transaminase, N-terminal His-tagged
For the molecule B1, in series [1], the “ω-transaminase activity: conversion of pyruvate to L-alanine with 6-aminohexanoate as substrate, against the empty vector control” value is reported as “accepted 6-aminohexanote as substrate”. Besides, the “ω-transaminase activity: conversion of L-alanine to pyruvate with adipate semialdehyde as substrate, against the empty vector control” value in series [2] is “accepted adipate semialdehyde as substrate”.

B2: SEQ ID NO 12: Vibrio fluvialis ω-transaminase, N-terminal His-tagged (protein, listed as Vibrio fluvialis)
chain: MNKPQSWEARAETYSLYGFTDMPSLHQRGTVVVTHGEGPYIVDVNGRRYLDANSGLWNMVAGFDHKGLIDAAKAQYERFPGYHAFFGRMSDQTVMLSEKLVEVSPFDSGRVFYTNSGSEANDTMVKMLWFLHAAEGKPQKRKILTRWNAYHGVTAVSASMTGKPYNSVFGLPLPGFVHLTCPHYWRYGEEGETEEQFVARLARELEETIQREGADTIAGFFAEPVMGAGGVIPPAKGYFQAILPILRKYDIPVISDEVICGFGRTGNTWGCVTYDFTPDAIISSKNLTAGFFPMGAVILGPELSKRLETAIEAIEEFPHGFTASGHPVGCAIALKAIDVVMNEGLAENVRRLAPRFEERLKHIAERPNIGEYRGIGFMWALEAVKDKASKTPFDGNLSVSERIANTCTDLGLICRPLGQSVVLCPPFILTEAQMDEMFDKLEKALDKVFAEVA
modifications: N-terminal His tag
notes: Vibrio fluvialis ω-transaminase, N-terminal His-tagged
As to B2, the “ω-transaminase activity: conversion of pyruvate to L-alanine with 6-aminohexanoate as substrate, against the empty vector control” value in series [1] was “accepted 6-aminohexanote as substrate”. Moreover, the “ω-transaminase activity: conversion of L-alanine to pyruvate with adipate semialdehyde as substrate, against the empty vector control” value in series [2] is “accepted adipate semialdehyde as substrate”.

B3: SEQ ID NO 8: Pseudomonas aeruginosa ω-transaminase, N-terminal His-tagged (protein, listed as Pseudomonas aeruginosa)
chain: MNARLHATSPLGDADLVRADQAHYMHGYHVFDDHRVNGSLNIAAGDGAYIYDTAGNRYLDAVGGMWCTNIGLGREEMARTVAEQTRLLAYSNPFCDMANPRAIELCRKLAELAPGDLDHVFLTTGGSTAVDTAIRLMHYYQNCRGKRAKKHVITRINAYHGSTFLGMSLGGKSADRPAEFDFLDERIHHLACPYYYRAPEGLGEAEFLDGLVDEFERKILELGADRVGAFISEPVFGSGGVIVPPAGYHRRMWELCQRYDVLYISDEVVTSFGRLGHFFASQAVFGVQPDIILTAKGLTSGYQPLGACIFSRRIWEVIAEPDKGRCFSHGFTYSGHPVACAAALKNIEIIEREGLLAHADEVGRYFEERLQSLRDLPIVGDVRGMRFMACVEFVADKASKALFPESLNIGEWVHLRAQKRGLLVRPIVHLNVMSPPLILTREQVDTVVRVLRESIEETVEDLVRAGHR
modifications: N-terminal His tag
notes: Pseudomonas aeruginosa ω-transaminase, N-terminal His-tagged
Turning to B3, the “ω-transaminase activity: conversion of L-alanine to pyruvate with adipate semialdehyde as substrate, against the empty vector control” value in series [2] is on record as “accepted adipate semialdehyde as substrate”.

B4: SEQ ID NO 9: Pseudomonas syringae ω-transaminase, N-terminal His-tagged (protein, listed as Pseudomonas syringae)
chain: MSANNPQTLEWQALSSEHHLAPFSDYKQLKEKGPRIITRAEGVYLWDSEGNKILDGMSGLWCVAIGYGREELADAASKQMRELPYYNLFFQTAHPPVLELAKAISDIAPEGMNHVFFTGSGSEGNDTMLRMVRHYWALKGQPNKKTIISRVNGYHGSTVAGASLGGMTYMHEQGDLPIPGVVHIPQPYWFGEGGDMTPDEFGIWAAEQLEKKILELGVENVGAFIAEPIQGAGGVIVPPDSYWPKIKEILSRYDILFAADEVICGFGRTSEWFGSDFYGLRPDMMTIAKGLTSGYVPMGGLIVRDEIVAVLNEGGDFNHGFTYSGHPVAAAVALENIRILREEKIVERVRSETAPYLQKRLRELSDHPLVGEVRGVGLLGAIELVKDKTTRERYTDKGAGMICRTFCFDNGLIMRAVGDTMIIAPPLVISFAQIDELVEKARTCLDLTLAVLQG
modifications: N-terminal His tag
notes: Pseudomonas syringae ω-transaminase, N-terminal His-tagged
For the molecule B4, in series [1], the “ω-transaminase activity: conversion of pyruvate to L-alanine with 6-aminohexanoate as substrate, against the empty vector control” value is recorded as “accepted 6-aminohexanote as substrate”. For the same molecule, in series [2], the “ω-transaminase activity: conversion of L-alanine to pyruvate with adipate semialdehyde as substrate, against the empty vector control” value was “accepted adipate semialdehyde as substrate”.

B5: SEQ ID NO: 6: Segniliparus rotundus carboxylate reductase, N-terminal His-tagged (protein, listed as Segniliparus rotundus)
chain: MTQSHTQGPQASAAHSRLARRAAELLATDPQAAATLPDPEVVRQATRPGLRLAERVDAILSGYADRPALGQRSFQTVKDPITGRSSVELLPTFDTITYRELRERATAIASDLAHHPQAPAKPGDFLASIGFISVDYVAIDIAGVFAGLTAVPLQTGATLATLTAITAETAPTLFAASIEHLPTAVDAVLATPSVRRLLVFDYRAGSDEDREAVEAAKRKIADAGSSVLVDVLDEVIARGKSAPKAPLPPATDAGDDSLSLLIYTSGSTGTPKGAMYPERNVAHFWGGVWAAAFDEDAAPPVPAINITFLPLSHVASRLSLMPTLARGGLMHFVAKSDLSTLFEDLKLARPTNLFLVPRVVEMLYQHYQSELDRRGVQDGTREAEAVKDDLRTGLLGGRILTAGFGSAPLSAELAGFIESLLQIHLVDGYGSTEAGPVWRDGYLVKPPVTDYKLIDVPELGYFSTDSPHPRGELAIKTQTILPGYYKRPETTAEVFDEDGFYLTGDVVAQIGPEQFAYVDRRKNVLKLSQGEFVTLAKLEAAYSSSPLVRQLFVYGSSERSYLLAVIVPTPDALKKFGVGEAAKAALGESLQKIARDEGLQSYEVPRDFIIETDPFTVENGLLSDARKSLRPKLKEHYGERLEAMYKELADGQANELRDIRRGVQQRPTLETVRRAAAAMLGASAAEIKPDAHFTDLGGDSLSALTFSNFLHDLFEVDVPVGVIVSAANTLGSVAEHIDAQLAGGRARPTFATVHGKGSTTIKASDLTLDKFIDEQTLEAAKHLPKPADPPRTVLLTGANGWLGRFLALEWLERLAPAGGKLITIVRGKDAAQAKARLDAAYESGDPKLAGHYQDLAATTLEVLAGDFSEPRLGLDEATWNRLADEVDFISHPGALVNHVLPYNQLFGPNVAGVAEIIKLAITTRIKPVTYLSTVAVAAGVEPSALDEDGDIRTVSAERSVDEGYANGYGNSKWGGEVLLREAHDRTGLPVRVFRSDMILAHQKYTGQVNATDQFTRLVQSLLATGLAPKSFYELDAQGNRQRAHYDGIPVDFTAESITTLGGDGLEGYRSYNVFNPHRDGVGLDEFVDWLIEAGHPITRIDDYDQWLSRFETSLRGLPESKRQASVLPLLHAFARPGPAVDGSPFRNTVFRTDVQKAKIGAEHDIPHLGKALVLKYADDIKQLGLL
modifications: N-terminal His tag
notes: Segniliparus rotundus carboxylate reductase, N-terminal His-tagged
Consider B5, for which, in series [3], the “carboxylate reductase activity: consumption of NADPH (absorbance at 340 nm) with adipate semialdehyde as substrate, against the empty vector control” value was “accepted adipate semialdehyde as substrate”.
